Measured values reported in patent EP4714978A1 (Neukio Biotherapeutics (Shangai ) Co., Ltd., dated 2026).

B1: Ab.79 scFv-human IgG Fc (Fc fusion)
chain: DVVMTQSPLSLPVTLGQPASISCRSSQSLVYNDGNTYLTWFQQWPGQSPRRLIYKVSNRDSGVPDRFSGSGSGTDFTLKISRVEAEDIGVYHCMQGTHWPYTFGQGTKLEIKGGGGSGGGGSGGGGSQVQVQESGPGLVKSSETLSLTCTVSGGSFRSYYWSWIRQPPGKGLDYIGYMYYSGTTNYNPSLTNRVSISVDTSKNQFSLKLNSVTAADTAVYYCAREGTFDIWGQGTVVTVSS
notes: Tested as scFv-human IgG Fc; not shown: human IgG Fc
B2: Ab.76 scFv-human IgG Fc (Fc fusion)
chain: EIVMTQSPATLSVSPGERATLSCRASQSVSSNLAWYRQKPGQAPRLFIYGAYTRATDIPARFSGSGSGTEFTLTISSLQSEDFAVYYCQQYNNWPFTFGPGTKVDIKGGGGSGGGGSGGGGSEVQMVESGGVLVQPGMSLRLSCAASGFTFDDYAMHWVRQPPGKGLEWVSVISWNSGSIGYADSVKGRFTISRDNAKNSLYLQMNSLRAEDTAFYYCAKDLEGGVMDFDYWGQGTLVTVSS
notes: not shown: human IgG Fc
B3: Ab.63 scFv-human IgG Fc (Fc fusion)
chain: QIVLTQSPGTLSLSPGERATLSCRASQSVTRGYLAWYQQKPGQAPRLLFYGASNRATDIPDRFSGSGSGTDFTLIISRLEPEDFAVYYCQQYGISPLTFGGGTKVEIKGGGGSGGGGSGGGGSQVQLHESGPGLVKPSETLSLTCTVSGASISSYYWSWIRQPPGKGLEWIGYIYYSGTTNFNPSLKSRVTISVDTSKNQFSLRLSSVTTADTAVYYCANLALTGFHFDYWGQGTLVTVSS
notes: as for B1
B4: Ab.73 scFv-human IgG Fc (Fc fusion)
chain: DVVMTQSPLSLPVTLGQPASISCRSSQSLGYSDGDTYLIWFLQRPGQSPRRLIYKVSNRDSGVPDRFSGSGSGTDFTLKISRVEAEDVGVYYCMQGTHWPYTFGQGTKLEIKGGGGSGGGGSGGGGSQVQVQESGPGLVKPSETLSLTCTVSTGSFSSHYWSWIRQPPGKSLEYIGYIYYTGTTNYNPSLKSRVTISVDTSKNQFSLNVNSVTAADTAVYYCAREGTFDIWGQGTMVTVSS
notes: as for B1
B5: Ab.67 scFv-human IgG Fc (Fc fusion)
chain: DVVVTQSPLSLPVTLGQPASISCRSSQSLVYSDGNTYLNWFQQRPGQSPRRLVYQVSNRDSGVPDRFSGSGSGTDFTLKISGMEAEDAGVYYCMQGTHWPHTFGQGTKLEIKGGGGSGGGGSGGGGSEVHLVESGGGLVQPGGSLKLSCAASGFIFSGSSMHWVRQASGKGLEWIGRIRNKANNYATSYGASVQGRFTMSRDDSKNTAYLQMNSLKAEDTAVYYCTYLSGEFWGQGTLVTVSS
notes: as for B1
B6: AMG757 (anti-DLL3 scFv from Amgen's patent, positive control) scFv-human IgG Fc (Fc fusion)
chain: EIVLTQSPGTLSLSPGERVTLSCRASQRVNNNYLAWYQQRPGQAPRLLIYGASSRATGIPDRFSGSGSGTDFTLTISRLEPEDFAVYYCQQYDRSPLTFGCGTKLEIKGGGGSGGGGSGGGGSQVQLQESGPGLVKPSETLSLTCTVSGGSISSYYWSWIRQPPGKCLEWIGYVYYSGTTNYNPSLKSRVTISVDTSKNQFSLKLSSVTAADTAVYYCASIAVTGFYFDYWGQGTLVTVSS
notes: not shown: human IgG Fc
B7: Ab.55 scFv-human IgG Fc (Fc fusion)
chain: EVVMTQSPLSLPVTLGQPASVSCRSSQSLLYSDGNTYLIWFQQRPGQSPRRLLYKLSTRDSGVPDRFSGSGSGTDFTLKISRVEAEDVGIYYCMQVTHWPYTFGQGTKLEIKGGGGSGGGGSGGGGSQVQLRESGPGLVKPSETLSLTCTVSGDSLKNSYWGWIRQPPGKGLEWIGYIYYSGTSSYNPSLESRVTFSADTSKNQFSLKLSSVTAADTAVYYCSREGSFDVWGRGTLVTVSS
notes: as for B1
B8: Ab.71 scFv-human IgG Fc (Fc fusion)
chain: DIGMTQSPDSLAVSLGERATINCKSSQNVLPNSNKKHYLSWYQQKPGQPPKLLIYLASTRASGVPDRFSGSGSGTDFTLTISSLQAEDVAVYYCQQYYSSPPEWTFGQGTKVEIKGGGGSGGGGSGGGGSQVQLVESGGGVVQPGRSLRLSCVASGFTFSNCGMHWVRQAPGKGLEWVAIIWYDGNIKYYGDSVKGRFTISRDNSKNTLYLQMNSLRVEDTAVYYCGRHDYGGNSFDYWGQGTLVTVSS
notes: as for B1

Key:
[1] = molecular target: T1, DLL3 on the surface of DLL3-positive cell lines SHP77 and NCI-H82 (UniProt Q9NYJ7 27-618, limits assumed); experiment: flow cytometry on NCI-H82 cells
T1 construct: whole, on cells; The cell line of each number is named under assay
T1 sequence (looked up): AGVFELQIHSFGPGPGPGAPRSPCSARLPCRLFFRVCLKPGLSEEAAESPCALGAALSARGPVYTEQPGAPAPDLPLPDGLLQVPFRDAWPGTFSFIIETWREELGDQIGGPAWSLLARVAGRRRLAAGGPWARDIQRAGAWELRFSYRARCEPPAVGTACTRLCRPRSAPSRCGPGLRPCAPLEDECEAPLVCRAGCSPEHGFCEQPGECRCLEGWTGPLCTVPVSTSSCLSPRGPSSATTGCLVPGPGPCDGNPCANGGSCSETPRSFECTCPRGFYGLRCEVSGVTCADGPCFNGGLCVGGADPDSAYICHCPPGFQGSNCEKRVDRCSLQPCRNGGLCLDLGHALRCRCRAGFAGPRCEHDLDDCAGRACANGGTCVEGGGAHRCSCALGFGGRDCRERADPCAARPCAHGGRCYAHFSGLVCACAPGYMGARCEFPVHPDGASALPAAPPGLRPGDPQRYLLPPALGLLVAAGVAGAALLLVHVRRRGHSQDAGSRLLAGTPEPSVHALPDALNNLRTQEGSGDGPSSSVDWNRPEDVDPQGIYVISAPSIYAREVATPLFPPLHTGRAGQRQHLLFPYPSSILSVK

[2] = molecular target: T1, DLL3 on the surface of DLL3-positive …; experiment: flow cytometry on SHP77 cells
human DLL3 protein [3] = molecular target: T2, human DLL3 protein (human, UniProt Q9NYJ7 27-492, limits assumed); experiment: BLI, scFv-Fc against human DLL3 protein
T2 construct: Soluble human DLL3 protein used in BLI; also called Delta-like protein 3
T2 sequence (looked up): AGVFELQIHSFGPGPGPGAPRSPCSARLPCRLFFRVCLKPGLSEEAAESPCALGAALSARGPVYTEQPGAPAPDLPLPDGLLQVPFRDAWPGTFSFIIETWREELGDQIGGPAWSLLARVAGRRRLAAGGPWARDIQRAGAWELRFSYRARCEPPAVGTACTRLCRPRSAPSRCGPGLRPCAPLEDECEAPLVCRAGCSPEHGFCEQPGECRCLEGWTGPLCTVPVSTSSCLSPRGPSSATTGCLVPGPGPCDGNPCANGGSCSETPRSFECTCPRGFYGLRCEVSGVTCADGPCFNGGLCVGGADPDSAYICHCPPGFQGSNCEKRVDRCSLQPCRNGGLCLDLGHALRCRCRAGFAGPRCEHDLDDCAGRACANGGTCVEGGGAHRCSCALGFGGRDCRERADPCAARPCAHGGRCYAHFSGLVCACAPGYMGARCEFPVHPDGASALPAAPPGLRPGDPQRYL

human DLL3 protein [4] = molecular target: T2, human DLL3 protein; experiment: BLI, scFv-Fc against human DLL3 protein; koff below the instrument detection limit

Row | Binder | EC50 [1] [µg/mL] | EC50 [2] [µg/mL] | Kd (human DLL3 protein [3]) [nM] | koff (human DLL3 protein [3]) [s⁻¹] | kon (human DLL3 protein [3]) [M⁻¹ s⁻¹] | koff (human DLL3 protein [4]) [s⁻¹]
1 | B1 | 0.064 | 0.073 | 0.487 | 0.000186 | 382000 | 
2 | B2 | 0.38 | 2.6 | 1.22 | 0.000288 | 236000 | 
3 | B3 | 0.012 | 0.011 | 1.41 | 0.000597 | 424000 | 
4 | B4 | 0.042 | 0.077 | < 0.005 |  | 193000 | < 1e-06
5 | B5 | 0.11 | 0.14 | 0.34 | 0.000182 | 534000 | 
6 | B6 | 0.082 | 0.089 | 0.164 | 3.03e-05 | 185000 | 
7 | B7 | 0.15 | 0.11 | 0.197 | 6.31e-05 | 320000 | 
8 | B8 | 0.027 | 0.039 | 0.299 | 0.000177 | 591000 | 
